Source: a protein production outcome set (Wang et al. 2014)

Assay: label from the status in PepcDB records

Row | Sequence | protein production
1 | SEDTMDRINKDHDHTTSVASRFILADVITSTAFSNASGDINTYASSYIEYEVGVDNQLYYAEVRENEPSSSSTFNNSWNGIYSSLKNARIIIDQCGEGGRDHGNDVTRGMAEVMAAYNCALIADFFGDAPCSQAALVDEKGSPVYMTPKMDTQQEIYTQIISYLDDAIANLQKEDLADVTEQDFLYAGDADKWLKFAYGLKARYTMRLINRSSNKSADYEKVLDYVSKSFTSADDQAAFDIYDSNNINPFYGFYNSRAGFGASTSLGTKLLAYNDPRANRAFFTPIVDKKRSQVAANDPSLVPAPNGSPDQSTSKYGISAFVYAKTAPTLLMSYHELMFLKAEALCRLNRDAEDALKEAVVAGLLNAENSISIAIKELGSGLNTNSSEVITETSAGKYFDDVVKAKYAANPLQETMIQKYLAMWGASGEATETYNDFRRMKGLNENFITLTNPNNSSKFPLRYPYGNSDTAANPEVKAAYGNGDYVYSEPVWWAGGSR | not failed
2 | MKSEMVLSFMATLAQEESHTKSEIMNASIEMRFRRGIFLTPTLLGYDHDEDGNLVVNEGEAKIVRLIFMMYLNGCTCQEIADTMTELGCETKKGNTVWSPGSILQILQNERHCGDVLARKTYTPNYLNHKSKKNMQNRPQYRKRNHHEAIISRDDFIAVQRLISNAKYGNKGILPELKVISNGVLKGFVSINPRWAGFKENDYISASLSVYDQMEQLSPSASSVEVQSGDFDLRGYEIARSQFFDGTDRITVTFSLNDIKFSTAAVRKLNSTLVELLLHPNKHLFAVRTASQAHRNAMQWAKKRGELSVPRAVSGTAFMPTVYALLGWNTDCRYRITGIRRGNGNDAVLLFNLEETEIFIPSDVIDEQQTSDARTDVKPFTDNQKKNVRAYPPDWADTFGSNYYCHAQAHELAGFNSRDVISNEAVAYKDSDIQVTSPDEVEKNIEQLMSDMKENSNELEHHHHHH | failed
3 | PATCPIVPGQEMIIEISKGRSGLGLSIVGGKDTPLNAIVIHEVYEEGAAARDGRLWAGDQILEVNGVDLRNSSHEEAITALRQTPQKVRLVVYRDEAHYRDEE | not failed
4 | MGKQESEKTVTGSDGSGRYERKALIDKLYETQELSREEWIRLIEGRTPELSEYLFEKARAVREREYGKAVYIRGLIECSNYCRNNCYYCGIRRGNQNAQRYRLTADEILSCCENGYSLGFRTFVLQGGEDPAMTDGWVADVIRRIKKEFPDCAVTLSLGEKSEAAYQCLFDAGADRYLLRHETADADHYGKLHPDGLSLAHRMECLRTLKRIGFQTGCGFMVGSPGQTPECLAKDMAFIRELNPQMVGIGPFIPQHDTPFRDERAGAFEETLWLLGLIRLMLPRVLLPATTALGTIHPKGRELGMLAGANVVMPNLSPLGVRKKYLLYDNKICTGDEAAESLNSLKESMKAIGYEVAVGRGDYRL | failed
5 | MILPPAFHAALLSGGNGRESKLPWVALGLAWLLAVLALLGPSWQRVEQTSQKPADPLVVLLELTPQMLANDVPPDRLEQARHKLLDLLQLRSDAQTAIVVYAGSAHTLVPLSDDLATSRNLLDALKPSIMPQAGQRADLALLKALKLLDQGALGQGRVLLMASSLNEEERQGIRQALKGDAPQLLMLGFGSRDGAPVAQEDGSYLKDDQGAILVSRLDSPDLKHFIGDVGGRYRQARLDDSDLRGLGLLGGPQGLRSDGQTLRLDTWADQGYWLLLPLLLLAACAGRRGWLFCLPLLLFAVPQPSYAFDFNDLWLRPDQQGQRLLQQQRPAEAARHFQDPQWQGVALYEAGNYTAAAERFAEGNDARAHYNRGNALARSGELEAAIDAYEQALERQPDLQPALQNKALVESLLQQQQAQTQTPPPAKKPDTPEGDDTRPGPSGAATQPPPGSNGPQDPAQAPANEGDTPPPDPQAAGHSEVPGSELDDQHTTTPLRPVEDSLDAEHQQALEQWLRKIPDDPGELLRRKFWYEQQQHQDQGKTR | failed
6 | MYLLRINIEGTINYGLYKYLYPALKAAEGKKSIAGLILVFNSGGGDAASSQLIHDLVKKIRKKKPVYSLALGICASGAYWIASASTKIYAIDTSLIGSIGVISIRPNVKKLMEKIGVDVMVYKSGKYKDMTSPFSEPNEEEKSVYQRLLDDIFEKFKRSVAEDRGIPSEKIDEIANGMVYSAKMAADNGLIDRIANYDDLVSDLTKEVGKRLKVKEFYIRKPLLQRLLGILEHHHHHH | failed
7 | MRDLITNRFTSQRTLREGSVGLLFLLGLGAFGVILLWLNRYTAAGSSYKAVVEFANAGGMQRGATVRYRGVKVGRISQIQPGPNAVEVEIEFAQSNLIIPRDVVIEANQTGLISESIIDITPKSSLPTGQTLPKPLDKNCDNSLIICNNSRLKGQIGISVDALIRSSTDFANTYTNPEFYQRVNRLLETSAQAATSVAALTQDFRGLTKSFQGQLGTFASTANTVQRATNELTVSTTKTVNQFGITADKFGTTATQASRLLSDLNSLLNTNRSSLVSALNNITETSNQLRLTVTNLSPSLNRLTQGELIKNLEALSANAAQASANLRNATESLNDPKNAVLLQQTLDSARLTFENTQKITSDLDELTGDPNFRQNLRQLVNGLSGLVSSTDQIEQQAKLATTLESMKAAADKPNITIPSLATHPSSNAVTIANNQPQVSSQEKLLQQLRDYAEQGSGEDKKQGSREQREELMKTDY | failed
8 | MKRSCMPARSNRNRINSALRGQLLRYLLNGLVATAVHYTILRFTLEVLGLHSAGLANGIAAIFGIIVSFIGNRYFVFRIVQVPLAKQALLFILTYFCIALIHTCILYFWTDVYNLNYTLGFLMATAMQVVFSFFSNKFMVFK | failed
9 | LIHKYKNFVRAKSRSYFLVGADREDIVQEGMIGLFKAIRDYKEDKLSSFKAFAELCITRQIITAIKTATRQKHIPLNSYVSLDKPIYDEESDRTLLDVISEAKVTDPEEMIISQEEYTDIESKISELLSDLERKVLSLYLDGRSYQEISEQLNRHVKSIDNALQRVKRKLERYMEMRESTTLNS | not failed
10 | MQDSLGIMIKKANNALARDSDHYAKSLGLTGMQISTINFIANNEQHHDLFQRDLELEFNIRKATCSSLVSKMEAADLLIRVPAKDDGRYKRLLLTPKARQLATKIERFFETSEQRMATILGVNTAETYEALRQIAVAFSTPTHAPENWYLEHHHHHH | not failed
11 | MFSEVEMARDVAICAKHLNGQSPHQPILCRLLQDLIHEKACREHGFYLGITALKSIGNNKNNNIDNENNHQAKILTFPVSFTCRTFLPARGDILQGTVKKVLWNGAFIRSGPLRYAYLSLLKMPHYHYVHSPLSEDEKPHFQKDDLSKIAVGVVVRFQVLAVRFKERPHKRRNDYYVLATLEGNGSFGPISLTGSDEPYM | failed
12 | MSCGYTGPINEQNKENIKRAIAMHAAARRTRMLQQLREGLQLYRLVDIMEKNKEVCRSHFVFEGGNDQVDSQYIVSHLDPKMSESGTLKHSKEMQILNNFQDFLMELEDGGPEDEEALCVSKVMQWLSGQAHVHLLLSERQAFKITVLFDHTCMERMPDHRICYPVDSAWTQTITFPTAHSTSLNQFKENMRIAVQQGAYFYRV | failed
13 | MDGYTGSHVVRCALRLAPLVFVRPGELRKAEWKDIDLDGGEWRYTVTKTNTPHIVPLSTQAVEILKELQALTGRSRFVFPGARTNGRPMSDNAILAALRRMGIDKEEMSGHGFRAMARTILDEVLGVRPDFIEHQLAHSVRDPLEHHHHHH | failed
14 | MAPRKRNPNGSGSIWQRKDGRYEARVYVPQPDGTRKRKTVYGTTWEECDTKRQELVLRDRQGIPTPTRSAKLSEWLPYWLKHYVEPRRKLSTYDKYEVQVRLYLVPLLGTRRLESLSVADVRRFITRVQNAHTAATAKESHRVLRTALTAAVREELITRNVASLVEPPRVKQREIRPWSLEETLSFLEAARSDPLYAAFVLAIAMGLRRGELGGLRWSDVDLDNRVVHVRQQTQRRRGTLYDDDPKSRRIRVVPMPALCIAPLRWHRLRQRETFARTGVAWCEAGYVFATRNGRPVEPRNVYRSFTRVAADAGLRVVRLHDARHGCATLLTAAGVAPRVIMEILGHSQISITMDVYTHVVHDTQREAISHMDRLLKRRLPTSLSGGAGSIEFP | failed
15 | SGGGGKAWPTHVVCSDSGLEVLYQSCDPLQDFGFSVEKCSKQLKSNINIRFGIILREDIKELFLDLALMSQGSSVLNFSYPICEAALPKFSFCGRRKGEQIYYAGPVNNPEFTIPQGEYQVLLELYTEKRSTVACANATIMCS | failed
16 | MGGITITAVISNRDKVTFGEVADHYHSNKLIFGLKYFKNWVLERVAAWFPIPSWRAKFHKMRGVNLGKNVYVGYDVVFDRLHPEMITVGDYSEIGDRCILSAHSRGSLTTRQAYPRTIEPIKIGCGVSVNPGCIITQGVEIGDNSIIGIGSVVTRDISPNSLALGYPARVIKKLDGVGELQTSFNDT | failed
17 | MTLTQQKVKFFSKAYHDVKRLYLSAFPPRERFPYFCLLLNSLRSLVTCYAYYDKERFVGFAYIIESKEQVFILFLAVNGSVRSKGYGSMILAQIREYAGRKPLILTIEPVEKDSPNSEQRRQRLSFYERNGYQLTSHYYYEGQERYQILTTEQSIDLERFQKLVKRAVLGLVLITV | failed
18 | MEAARSMTFSECAALYIKAHRSSWKNTKHADQWTNTIKTYCGPVIGPLSVQDVDTKLIMKVLDPIWEQKPETASRLRGRIESVLDWATVRGYREGDNLEHHHHHH | failed
19 | TQNLREKQEIAKRAACDIQDHECIFLDAGSSTFELIQYIEAKDITVVTNGMTHVEELLKHGIKTLMVGGQVKPTTMATVGANALETLRRYCFDRAFIGMNGIDVKYGLTTPDEQEALIKETAMKLSNHKYVLVDQSKFNQIYFARVSILDGLSIITSQKAMQSKMTEAYMNEFNFIGGKS | failed
20 | MRLVEIGRFGAPYALKGGLRFRGEPVVLHLERVYVEGHGWRAIEDLYRVGEELVVHLAGVTDRTLAEALVGLRVYAEVADLPPLEEGRYYYFALIGLPVYVEGRQVGEVVDILDAGAQDVLIIRGVGERLRDRAERLVPLQAPYVRVEEGGIHVDPIPGLFDLEHHHHHH | failed
21 | MFIEALILLCLVGAAAVFIAPDRYAHKLALGLSVPPLVVSLYMYAAFDGSGNALLGGDIAYETATEWLQLGQYTVSYHVGLDGISLPLVVLSTVLTTLAILSAWTPIDERQSEFYGLVLLLEGSLIGVFAALDFILWFVFWEAVLIPMYLLIGVWGGPRRKYAAIKFFVYTNIASLVMFIGYFALVFGLGDAVSSTGMPAVAQALRADQLGYLGTAAVGIGPDMLAMAAFLAMFVGFAVKVPVVPFHTWLPDAHVEAPTPVSVLLAGVLLKMGTYALLRFNFTMLPDQVETFAVPIALIAIISILYGALLALAQKDLKRIVAYSSVSSMGYVILGLVAYTVYGVGGATFQMIAHGLISGLLFMTVGVFYNATHTRMVGDMGGLADRMPVTAGIFIAGAFGYMGLPLMAGFMAELFVFIGAFQSAILPYAPVITAAGMFGIVVVAGYLLWAMQRSLFGPFRLETDYELERAPVHDIVPLLTLVALIIALGVAPDLIFEMIRDATHSVIDYDFGGDL | failed
22 | MKDIYELLNDIDIDEKELEEIEASEIEKEKVKRNVKQSIRTKKKMKSWKKGVAAASILVGLSVTTLGIGFPTYAGGLPIVGDIFRFLDNGRTGLYENYKEFSTELNMTRESNGVKVTINDVISDGRTLSITYSLESEQDLGDDPIILGGLDIMDAHGSSGSGKMTKVTEKKYVGMVTTTHHDSNKKDKVNFRWNIEGIEIPDRKKSIQGHWNFALTVKSMDSKERTIGGSSEKEGIKANMEKVAMSPVSFILYYNQEVSKGARKEWDSVDVELTVKDDLGNDYSGEGNGGSGNDPYNIRWSATFQKLNENATKLIVTPRVHLRVHTPENHGGVEYVNGKEKKIEVPNKEAKKKDIVLDDIVIDLKK | not failed
23 | MKKFFIIGTDTEVGKTYISTKLIEVCEHQNIKSLCLKPVASGQSQFSELCEDVESILNAYKHKFTAAEINLISFNQAVAPHIIAAKTKVDISIENLKQFIEDKYNQDLDILFIEGAGGLLTPYSDHTTQLDLIKALQIPVLLVSAIKVGCINHTLLTINELNRHNIKLAGWIANCNDSNIKYIDEQINTIEELSGYKCSAKISRNADYLDFIDLSKILISPEENE | not failed
